{"source": "patent US20100173005A1", "about": "“MICROPARTICLE FORMULATIONS FOR SUSTAINED-RELEASE OF BIOACTIVE COMPOUNDS” (POWDER PHARMACEUTICALS INCORPORATED, priority 1999, published 2010)", "key": {"[1]": {"experiment": "Repeat sustained release study of lysozyme from sulfated dextran beads: PBS elution at 0.84 ml/min, HPLC analysis", "format": "physicochemical", "description": "The sustained release study described in the above Example was repeated except, in this instance, a different elution rate was used to determine if the rate of release of the lysozyme guest substance from the dextran is a function of the flow rate of the elution buffer.\nMore particularly, sulfated dextran beads were loaded with lysozyme as described in the above Example. The specifics of the loading were as follows: 42.4 g of the hydrated dextran beads was stirred in 100 ml of lysozyme solution (to yield a 20.11 mg/ml solution) for 1 hour. The loaded beads were then loaded into a column as described above for a further sustained release study.\nFor the PBS elution, the PBS wash (pH 7.4) was used to elute lysozyme from the beads at a flow rate of 0.84 ml/min for 20.6 hours. The eluted solution was collected in fractions, and the elution fractions were analyzed with HPLC for lysozyme concentration using a Vydac C18 HPLC column. For the high-salt elution, the remaining lysozyme in the beads was then eluted with the high-salt elution buffer at a rate of […].\nThe amount of lysozyme protein that eluted with the PBS wash was 39.51 mg and, from the high salt elution, the amount of lysozyme was 40.34 mg. Accumulated percent lysozyme release (Y) was plotted against elution time (X)."}, "[2]": {"experiment": "Sustained release of lysozyme from sulfated dextran hydrogel beads: PBS wash then high salt elution, UV detection", "format": "physicochemical", "source_text": "A preparation of cross-linked, sulfated dexan affinity chromatography resin beads were obtained from a commercial source (Sigma. St, Louis, Mo.). More particularly, 4% cross-linked sulfated beaded dextran was obtained as a lyophilized powder stabilized in lactose. The sulfate ligand will bind with a charged guest substance (e.g. a peptide or protein) at low salt concentration. This binding is reversible and the bound guest can be desorbed at a high salt concentration.\nIn the study, lysozyme (Sigma) was loaded into the beads using the techniques described in commonly held International Application No. PCT/GB00/00349.\nParticularly, each gram of the sulfated dextran beads was washed with approximately 3×500 ml deionized water. Excess water was removed by vacuum filtration. A loading solution was prepared by dissolving 4.00 g lysozyme in 200 ml deionized water, yielding a 20 mg/ml solution. The loading solution was added to the hydrated dextran beads at a 1:1 ratio to provide a suspension. The suspension was stirred for one hour, and excess solution was drained from the hydrated beads. The loaded beads were then divided into two portions. The first portion (5.7 cc, experimental) was placed into a column (Econo column, BioRad, Hercules, Calif.) and washed with a phosphate buffered saline (PBS) solution (pH 7.4) for 19.6 hours, then eluted with 21.2 ml of a high salt elution buffer (1.0M ammonium sulfate, 50 mM sodium phosphate, pH 7.2). […] The amount of lysozyme released from the dextran beads during the PBS wash was determined by comparison against the amount of lysozyme eluted by the elution solution for both the experimental and the control portions.\nLysozyme concentration was determined using a UV detector (BioRad UV detector). A standard curve (UV absorption vs lysozyme concentration) was prepared by measuring the UV absorption of stock lysozyme solutions at different concentration ranging from 1 mg/ml to 4 mg/ml, Concentrations of the unknowns were then determined by extrapolation of the standard curve. […]"}}, "data": [{"substance": "lysozyme", "values": [{"measurement": "release rate (slope of accumulated percent release vs elution time)", "setting": "[1]; PBS elution at 0.84 ml/min, line equation Y=1.49X+0.242", "result": 1.49, "unit": "%/hr"}, {"measurement": "amount of lysozyme protein eluted with the PBS wash", "setting": "[1]; PBS pH 7.4, flow rate 0.84 ml/min for 20.6 hours, HPLC", "result": 39.51, "unit": "mg"}, {"measurement": "amount of lysozyme from the high salt elution", "setting": "[1]; remaining lysozyme eluted with high-salt elution buffer after the PBS wash", "result": 40.34, "unit": "mg"}, {"measurement": "amount of lysozyme eluted in the elution buffer", "setting": "[2]; control portion, immediately eluted with high salt elution buffer alone", "result": 10.5, "unit": "mg/ml wet beads"}, {"measurement": "amount of lysozyme eluted in the elution buffer", "setting": "[2]; experimental portion (PBS washed beads, 19.6 hours), high salt elution buffer 1.0M ammonium sulfate, 50 mM sodium phosphate, pH 7.2", "result": 3.72, "unit": "mg/ml beads"}, {"measurement": "amount of lysozyme released during the PBS wash", "setting": "[2]; experimental portion, PBS pH 7.4 wash for 19.6 hours, UV detector", "result": "not detectable"}]}]}
